Assay results as given in US20260103488A1 (INTERK PEPTIDE THERAPEUTICS, published 2026).
Bridges are numbered along the chain shown (N, C = ends). Where no end group is shown, it is not given here. [ ]: non-standard residue; d: D form.

Molecular target: Lck(h) (lymphocyte-specific protein tyrosine kinase) (human, UniProt P06239 1-509, limits assumed)
Experiment: cell-based or functional assay

Sequence of Lck(h) (lymphocyte-specific protein tyrosine kinase) (P06239 whole entry): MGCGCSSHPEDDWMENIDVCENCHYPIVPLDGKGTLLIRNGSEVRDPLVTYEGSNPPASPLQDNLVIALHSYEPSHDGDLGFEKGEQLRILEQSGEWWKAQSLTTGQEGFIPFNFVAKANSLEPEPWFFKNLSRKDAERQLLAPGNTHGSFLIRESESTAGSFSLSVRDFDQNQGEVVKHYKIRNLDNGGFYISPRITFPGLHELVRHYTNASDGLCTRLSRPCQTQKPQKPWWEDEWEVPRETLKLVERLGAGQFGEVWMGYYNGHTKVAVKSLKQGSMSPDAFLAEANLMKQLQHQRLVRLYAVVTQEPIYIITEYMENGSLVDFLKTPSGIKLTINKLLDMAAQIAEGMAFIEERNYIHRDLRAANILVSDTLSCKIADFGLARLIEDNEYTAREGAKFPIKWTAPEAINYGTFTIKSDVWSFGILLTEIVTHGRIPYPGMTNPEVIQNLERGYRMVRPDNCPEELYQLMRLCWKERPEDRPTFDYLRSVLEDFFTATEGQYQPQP

RRRRRRRRRHHHHHHHHHH-NH2 [RRRRRRRRR-HHHHHHHHHH (IK00910)]
Lck activity relative to control (100%), in vitro kinase assay, peptide 1 µM: 348 % Lck activity relative to control

RRRRRRRRR-NH2 [RRRRRRRRR (IK00900)]
Lck activity, percentage relative to control, in vitro kinase assay, peptide 1 µM: 325%

B1: rskaknply-rrrrrr (ID94600) (peptide)
peptide: [dR][dS][dK][dA][dK][dN][dP][dL][dY][dR][dR][dR][dR][dR][dR]-NH2
modifications: N-terminus assumed
SMILES: CC(C)C[C@@H](NC(=O)[C@H]1CCCN1C(=O)[C@@H](CC(N)=O)NC(=O)[C@@H](CCCCN)NC(=O)[C@@H](C)NC(=O)[C@@H](CCCCN)NC(=O)[C@@H](CO)NC(=O)[C@H](N)CCCNC(=N)N)C(=O)N[C@H](Cc1ccc(O)cc1)C(=O)N[C@H](CCCNC(=N)N)C(=O)N[C@H](CCCNC(=N)N)C(=O)N[C@H](CCCNC(=N)N)C(=O)N[C@H](CCCNC(=N)N)C(=O)N[C@H](CCCNC(=N)N)C(=O)N[C@H](CCCNC(=N)N)C(N)=O
Lck activity, percentage relative to control, in vitro kinase assay, peptide 1 µM: 60 % increase in Lck activity

RSKAKNPLYRRRRR-NH2 [RSKAKNPLY-RRRRR (IK14400)]
Lck activity, percentage relative to control, in vitro kinase assay, peptide 1 µM: 85%

RSKAKRRRRRRRRR-NH2 [RSKAK-RRRRRRRRR (IK50900)]
Lck activity, percentage relative to control, in vitro kinase assay, peptide 1 µM: 531 % increase in Lck activity

RSKAKRR-NH2 [RSKAK-RR (IK50200)]
Lck activity, percentage relative to control, in vitro kinase assay, peptide 1 µM: 5 % activation of Lck relative to control

B2: rrrrrrrr (IKD00800) (peptide)
peptide: [dR][dR][dR][dR][dR][dR][dR][dR]-NH2
modifications: N-terminus assumed
SMILES: N=C(N)NCCC[C@@H](N)C(=O)N[C@H](CCCNC(=N)N)C(=O)N[C@H](CCCNC(=N)N)C(=O)N[C@H](CCCNC(=N)N)C(=O)N[C@H](CCCNC(=N)N)C(=O)N[C@H](CCCNC(=N)N)C(=O)N[C@H](CCCNC(=N)N)C(=O)N[C@H](CCCNC(=N)N)C(N)=O
Lck activity relative to control (100%), in vitro kinase assay, peptide 1 µM: 80 % Lck activity relative to control

RRRRRRRRRSKAKNPLYR-NH2 [RRRRRRRRR-SKAKNPLYR (IK9R94S)]
Lck activity, percentage relative to control, in vitro kinase assay, peptide 1 µM: 542 % increase in Lck activity

RSKAKNPLYRHHHHHHHHHH-NH2 [RSKAKNPLY-RHHHHHHHHHH (IK14010)]
Lck activity, percentage relative to control, in vitro kinase assay, peptide 1 µM: 30 % increase in Lck activity

HHHHHRSKAKNPLYRRRRRRRRR-NH2 [HHHHH-RSKAKNPLY-RRRRRRRRR (IK11480)]
Lck activity, percentage relative to control, in vitro kinase assay, peptide 1 µM: 883 % increase in Lck activity

RSKAKNPLYRRRRRRRRR-NH2 [RSKAKNPLY-RRRRRRRRR-NH2 (IK14800)]
Lck activity, percentage relative to control, in vitro kinase assay, peptide 1 µM: 496%

RRRRRRRRRRRR-NH2 [RRRRRRRRRRRR (IK01200)]
Lck activity relative to control (100%), in vitro kinase assay, peptide 1 µM: 401 % Lck activity relative to control

KKKKKKKKKK-NH2 [KKKKKKKKKK (10Lys)]
Lck activity relative to control (100%), in vitro kinase assay, peptide 1 µM: 161 % increase in Lck activity

RSKAK-NH2 [RSKAK (IK5000)]
Lck activity, percentage relative to control, in vitro kinase assay, peptide 1 µM: 5 % activation of Lck relative to control

RSKAKNPLYKKKKKKKKK-NH2 [RSKAKNPLY-KKKKKKKKK (IK94K90)]
Lck activity, percentage relative to control, in vitro kinase assay, peptide 1 µM: 49 % increase in Lck activity

RSKAKNPLYRRRRRR-NH2 [RSKAKNPLY-RRRRRR (IK14500)]
Lck activity, percentage relative to control, in vitro kinase assay, peptide 1 µM: 82%

RSKAKNPLYRRRRRRRRRHHHHHHHHHH-NH2 [RSKAKNPLY-RRRRRRRRR-HHHHHHHHHH (IK14810)]
Lck activity, percentage relative to control, in vitro kinase assay, peptide 1 µM: 899 % increase in Lck activity

RRRRRRRRRYLPNKAKSR-NH2 [RRRRRRRRR-YLPNKAKSR (IK9R94Y)]
Lck activity, percentage relative to control, in vitro kinase assay, peptide 1 µM: 630 % increase in Lck activity

B3: rrrrrrrrrrrrrr (IKD01400) (peptide)
peptide: [dR][dR][dR][dR][dR][dR][dR][dR][dR][dR][dR][dR][dR][dR]-NH2
modifications: N-terminus assumed
SMILES: N=C(N)NCCC[C@@H](N)C(=O)N[C@H](CCCNC(=N)N)C(=O)N[C@H](CCCNC(=N)N)C(=O)N[C@H](CCCNC(=N)N)C(=O)N[C@H](CCCNC(=N)N)C(=O)N[C@H](CCCNC(=N)N)C(=O)N[C@H](CCCNC(=N)N)C(=O)N[C@H](CCCNC(=N)N)C(=O)N[C@H](CCCNC(=N)N)C(=O)N[C@H](CCCNC(=N)N)C(=O)N[C@H](CCCNC(=N)N)C(=O)N[C@H](CCCNC(=N)N)C(=O)N[C@H](CCCNC(=N)N)C(=O)N[C@H](CCCNC(=N)N)C(N)=O
Lck activity relative to control (100%), in vitro kinase assay, peptide 1 µM: 228 % Lck activity relative to control

B4: C-RSKAKNPLY-RRRRRR-C (Cyclised) (IK14500C) (peptide)
peptide: CRSKAKNPLYRRRRRRC
modifications: disulfide 1-17 (inferred); not fully specified; printed as C-RSKAKNPLY-RRRRRR-C (Cyclised)
Lck activity, percentage relative to control, in vitro kinase assay, peptide 1 µM: 221%

B5: rrrrrrrrr-ylpnkaksr (IKR81400) (peptide)
peptide: [dR][dR][dR][dR][dR][dR][dR][dR][dR][dY][dL][dP][dN][dK][dA][dK][dS][dR]-NH2
modifications: N-terminus assumed
SMILES: CC(C)C[C@@H](NC(=O)[C@@H](Cc1ccc(O)cc1)NC(=O)[C@@H](CCCNC(=N)N)NC(=O)[C@@H](CCCNC(=N)N)NC(=O)[C@@H](CCCNC(=N)N)NC(=O)[C@@H](CCCNC(=N)N)NC(=O)[C@@H](CCCNC(=N)N)NC(=O)[C@@H](CCCNC(=N)N)NC(=O)[C@@H](CCCNC(=N)N)NC(=O)[C@@H](CCCNC(=N)N)NC(=O)[C@H](N)CCCNC(=N)N)C(=O)N1CCC[C@@H]1C(=O)N[C@H](CC(N)=O)C(=O)N[C@H](CCCCN)C(=O)N[C@H](C)C(=O)N[C@H](CCCCN)C(=O)N[C@H](CO)C(=O)N[C@H](CCCNC(=N)N)C(N)=O
Lck activity, percentage relative to control, in vitro kinase assay, peptide 1 µM: 616 % increase in Lck activity
